Measurements reported in patent US20020034726A1, “Eosinophil chemotactic factor” (priority 1998, published 2002).
“Also recorded” adds a separate entry of the source.

What was measured:
Type in all cases: cell-based
[1] = system: human eosinophils; assay: eosinophil chemotaxis (ECA) test, bilayered 48-well chamber
Experimental: (§1) The eosinophil chemotaxis was measured by following the method described in the reference (Lymphokine Cytokine Res. 10, 481-486, 1991; Lymphokine Cytokine Res. 11, 331-338, 1992). Specifically, eosinophils of CD16- were purified from the peripheral blood of normal volunteers by discontinuous density-gradient method using Percoll (Pharmacia, Picataway, N.J.), and the following anti-CD16 immunoglobulin (DAKO. A. S, Glostrup, Denmark) magnetic antibody treatment. Purity of the obtained eosinophils was 97% or higher, and living cells were 95%. Chemotaxis was measured using a bilayered 48-well plate (NeuroProbe, Cabin John, Md.) mediated through a polyvinylpyrrolidone-free membrane (a standard pore size of 5 micron). Chemotactic factors in various concentration, and 0.5×10^6 to 1×10^6 cells/ml human eosinophils were placed on the lower and upper layers, respectively, and incubated under 5% carbon dioxide at 37° C. for 1 to 2 hours. Then the membrane separating two plates was removed, and eosinophils were stained by placing them in DiffQuick stain (Baxter Health Care, McGaw Park, Ill.) to count the eosinophils which were passing through the membrane under a microscope. All assays were conducted three times.
As a positive control, human C5a (Sigma, Saint Louis, Mo.), IL-5 (Genzyme, Cambridge, Mass.), RANTES (Genzyme), and eotaxin-1 (Seikagaku-Kogyo, Tokyo) were used. […]

[2] = system: neutrophils; assay: neutrophil chemotaxis test; conditions: PBS negative control, IL-8 positive control; FIG. 6
[3] = system: lymphocytes; assay: lymphocyte chemotaxis test; conditions: membrane pore size 3 μm; PBS negative control, lymphotactin positive control; FIG. 7
Experimental: as §1
(§2) The similar experiments were conducted in regard to lymphocytes (FIG. 7) and monocytes (FIG. 8). Pore sizes of the membranes are 3 and 8 μm, respectively. […]

[4] = system: monocytes; assay: monocyte chemotaxis test; conditions: membrane pore size 8 μm, PBS negative control, MCP-1 positive control, FIG. 8
Experimental: as §1, §2

B1: ecalectin: eosinophil-specific chemotactic factor, 323 amino acid protein of SEQ ID NO: 2, similar to galectin-9; recombinant from Sf9 insect cells (protein, listed as Homo sapiens)
chain: MAFSSSQAPYLSPAVPFSGTIQGGLQDGLQITVNGTVLSSSGTRFAVNFQTGFSGNDIAFHFNPRFEDGGYVVCNTRQNGSWGPEERKTHMPFQKGMPFDLCFLVQSSDFKVMVNGILFVQYFHRVPFHRVDTISVNGSVQLSYISFQPPGVWPANPAPITQTVIHTVQSAPGQMFSTPAIPPMMYPHPAYPMPFITTILGGLYPSKSILLSGTVLPSAQRFHINLCSGNHIAFHLNPRFDENAVVRNTQIDNSWGSEERSLPRKMPFVRGQSFSVWILCEAHCLKVAVDGQHLFEYYHRLRNLPTINRLEVGGDIQLTHVQT
Question: Which results are given for B1?
Answer: specificity of chemotactic activity ([1]; eosinophils versus neutrophils, lymphocytes, monocytes, FIGS. 5-8): specific to eosinophils; eosinophil chemotactic activity ([1]; recombinant ecalectin purified from Sf9 insect cells, stained eosinophils passing through 5 micron membrane, FIG. 5): strong eosinophil chemotactic activity concentration-dependently; also recorded: concentration-dependent eosinophil chemotactic activity; neutrophil chemotactic activity [2]: no or little neutrophil chemotactic activity; also recorded: low or absent; also recorded: does not cause neutrophil chemotaxis; lymphocyte chemotactic activity [3]: no chemotactic activity; also recorded: low or absent; also recorded: does not cause lymphocyte chemotaxis; monocyte chemotactic activity [4]: no chemotactic activity; also recorded: low or absent; monocyte chemotactic activity ([4]; listed as recombinant ecalectin): does not cause monocyte chemotaxis
